Measured values published in patent US20240352102.

Assays:
[1] = test system: tau isoform 1N3R (3R tau, MAPT) (Homo sapiens), P10636-4; assay: SPR; settings: 50 mM HEPES, 25 mM NaCl, 0.1% Tween-20, pH 7.4; poly(A) length not restated for 3R
[2] = test system: tau isoform 1N4R (4R tau, MAPT) (Homo sapiens), P10636-7; assay: SPR; settings: 50 mM HEPES, 25 mM NaCl, 0.1% Tween-20, pH 7.4
tau isoform 1N4R (4R tau, MAPT) (Homo sapiens), P10636-7, sequence (P10636 other isoform, or with tags, fused parts or gaps): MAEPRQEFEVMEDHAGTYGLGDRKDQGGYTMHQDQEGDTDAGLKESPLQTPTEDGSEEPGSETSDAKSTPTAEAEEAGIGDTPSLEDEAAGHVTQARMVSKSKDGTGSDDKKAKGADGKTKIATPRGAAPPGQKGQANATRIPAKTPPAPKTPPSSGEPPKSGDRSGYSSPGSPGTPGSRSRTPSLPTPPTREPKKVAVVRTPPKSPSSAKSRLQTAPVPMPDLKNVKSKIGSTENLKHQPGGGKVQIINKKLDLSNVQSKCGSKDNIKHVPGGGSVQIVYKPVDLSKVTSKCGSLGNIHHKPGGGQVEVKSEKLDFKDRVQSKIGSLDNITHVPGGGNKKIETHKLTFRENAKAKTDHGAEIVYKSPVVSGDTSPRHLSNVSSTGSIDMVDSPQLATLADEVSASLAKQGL

tau isoform 1N3R (3R tau, MAPT) (Homo sapiens), P10636-4, sequence (P10636 other isoform, or with tags, fused parts or gaps): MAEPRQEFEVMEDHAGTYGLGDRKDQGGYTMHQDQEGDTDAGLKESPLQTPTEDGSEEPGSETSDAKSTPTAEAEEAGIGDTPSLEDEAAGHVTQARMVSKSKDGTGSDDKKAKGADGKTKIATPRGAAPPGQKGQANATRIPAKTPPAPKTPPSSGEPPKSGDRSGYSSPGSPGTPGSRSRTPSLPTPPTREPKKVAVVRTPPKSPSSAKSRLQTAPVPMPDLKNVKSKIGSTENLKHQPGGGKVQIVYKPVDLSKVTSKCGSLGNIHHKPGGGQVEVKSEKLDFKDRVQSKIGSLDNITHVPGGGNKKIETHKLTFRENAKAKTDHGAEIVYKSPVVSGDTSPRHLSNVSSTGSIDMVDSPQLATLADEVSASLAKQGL

Row | Substance | Kd [1] [nM] | Kd ([2]; streptavidin chip, poly(A)20 length from FIG. 1B trace) [nM] | Kd [2] [nM]
1 | A [biotin poly(A)20 RNA] | 8.3 | 7.2 | –
2 | biotin tRNA-Lys | – | – | > 30
